The source of these data is patent publication US20220259593A1, “CONTROL OF MAMMALIAN GENE DOSAGE USING CRISPR” (The Regents of the University of California, priority 2019, published 2022).

First the molecules themselves.
B1: cr772 (nucleic acid)
guide: GTTTAAGAGCTAAGCTGGAAACAGCATAGCAAGTTTAAATAAGGCTAGTCCGTTATCAACTCGAAAGAGTGGCACCGAGTCGGTGCT
modifications: listed as DNA, chemistry not fully specified
B2: cr171 (nucleic acid)
guide: GTTTAAGAGCTAAGCTGGAAACAGCATAGCAAGTTTAAATAAGGCTAGTCCGTTATCAACCTGAGAAGGTGGCACCGAGTCGGTGCT
modifications: listed as DNA, chemistry not fully specified
B3: cr809 (nucleic acid)
guide: GTTTAAGAGCTAAGCTGGAAACAGCATAGCAAGTTTAAATAAGGCTAGTCCGTTATCAACGTGAAAACGTGGAACCGAGTCGGTTCT
modifications: listed as DNA, chemistry not fully specified
B4: cr486 (nucleic acid)
guide: GTTTAAGAGCTAAGCTGGAAACAGCATAGCAAGTTTAAATAAGGCTAGTCCGTTATCAACTTGAAAAAGTGAAACTGAGTCAGTTTT
modifications: listed as DNA, chemistry not fully specified
B5: cr165 (nucleic acid)
guide: GTTTAAGAGCTAAGCTGGAAACAGCATAGCAAGTTTAAATAAAGCTAGTCTGTTATCAACTCGAAAGAGTGTCACCGAGTCGGTGAT
modifications: listed as DNA, chemistry not fully specified
B6: cr460 (nucleic acid)
guide: GTTTAAGAGCTAAGCTGGAAACAGCATAGCAAGTTTAAATAAGGGTACTCCGTTATCAACTTGAAAAAGTGGCTCAGAGTCTGAGCT
modifications: listed as DNA, chemistry not fully specified
B7: cr904 (nucleic acid)
guide: GTTTAAGAGCTAAGCTGGAAACAGCATAGCAAGTTTAAATAAGTCTAGTACGTTATCAATTTGAAAAAATGGCAACGAGTCGTTGCT
modifications: listed as DNA, chemistry not fully specified
B8: cr318 (nucleic acid)
guide: GTTTAAGAGCTAAGCTGGAAACAGCATAGCAAGTTTAAATATGGCTAGTCCGTTATCAACTTGATAAAGTGGCACCGAGTCGGTGCT
modifications: listed as DNA, chemistry not fully specified
B9: cr126 (nucleic acid)
guide: GTTTAAGAGCTAAGCTGGAAACAGCATAGCAAATTTAAATAAGGCTCGTCCGTTATCAACTTTAAAAAGTGGCACCGAGTCGGTGCT
modifications: listed as DNA, chemistry not fully specified
B10: cr485 (nucleic acid)
guide: GTTTAAGAGCTAAGCTGGAAACAGCATAGCAAGTTTAAATAAGGCTTGTCCGTTATCAACTTGAAAAAGTTGCACCGTGTCGGTGCT
modifications: listed as DNA, chemistry not fully specified
B11: cr040 (nucleic acid)
guide: ATTTACGAGCTAAGCTGGAAACAGCATAGCAAGTTTAAATAAGGCTAGTCCGTTATCAACTTGAAAAAGTGGCACCGAGTCGGTGCT
modifications: listed as DNA, chemistry not fully specified
B12: cr868 (nucleic acid)
guide: GTTTAAGAGCTAAGCTGGAAACAGCATAGCAAGTTCAAATAAGGCTAGTCCGTTATCAACTTGAAAAAGTGGCACCGAGTCGGTGCT
modifications: listed as DNA, chemistry not fully specified
B13: cr148 (nucleic acid)
guide: GTTTAAGAGCTAAGCTGGAAACAGCATAGCAAGCTTAAATAAGGCTAGTCCGTTATCAACTTGAAAAAGTGGCGCCGAGTCGGCGCT
modifications: listed as DNA, chemistry not fully specified
B14: cr866 (nucleic acid)
guide: GTTTAAGAGCTAAGCTGGAAACAGCATAGCAAGTTTAAATAAGGCTAGTCCGTTATCAACTTGAAAAAGTGTCCCCGAGTCGGTGCT
modifications: listed as DNA, chemistry not fully specified
B15: cr425 (nucleic acid)
guide: GTTTAAGAGCTAAGCTGGAAACAGCATAGCAAGTTTAAATAAGGCTAGTCCGTTATCATCCTGAAAATGCGGCACCGAGTCGGTGCT
modifications: listed as DNA, chemistry not fully specified
B16: cr668 (nucleic acid)
guide: GTTTAAGAGCTAAGCTGGAAACAGCATAGCAAGTTTAAATAAGGCTAGTCCGTTATCAAGTTGAAAAAGTGGCACCGAGTCGGTGCT
modifications: listed as DNA, chemistry not fully specified
B17: cr385 (nucleic acid)
guide: GTTTAAGAGCTAAGCTGGAAACAGCATAGCAAGTTTAAATAAGGCTAGTCCGTTATCAACTTGAAAAAGTGGCCACCAGTGGTGGCT
modifications: listed as DNA, chemistry not fully specified
B18: cr955 (nucleic acid)
guide: GTTTAAGAGCTAAGCTGGAAACAGCATAGCAAGTTTAAATAAGGCTAATCCGTTATCAACTTGAAAAAGTGGCACCGAGTCGGTGCT
modifications: listed as DNA, chemistry not fully specified
B19: cr405 (nucleic acid)
guide: GTTTAAGAGCTAAGCTGGAAACAGCATAGCAAGTTTAAATAAGGCTAGTCCGTTATCAACTTGAAAAAGTGTCAGCAAGTTGCTGAT
modifications: listed as DNA, chemistry not fully specified
B20: cr873 (nucleic acid)
guide: GTTTAAGAGCTAAGCTGGAAACAGCATAGCAAGCTTAAATAAGGCTAGTCCGTTATCAACTAGAAATAGTGGCACCGAGTCGGTGCT
modifications: listed as DNA, chemistry not fully specified
B21: cr775 (nucleic acid)
guide: GTTTAAGAGCTAAGCTGGAAACAGCATAGCGATTTTAAATAAGGCTAGTCCGTTATCAACTTGAAAAAGTGGCACCGAGTCGGTGCT
modifications: listed as DNA, chemistry not fully specified
B22: cr566 (nucleic acid)
guide: GTTTAAGAGCTAAGCTGGAAACAGCATAGCAAGCTTAAATAAGGCTAGTCCGTTATCAACATGAAAATGTGGCACCGAGTCGGTGCT
modifications: listed as DNA, chemistry not fully specified
B23: cr736 (nucleic acid)
guide: GTTTAAGAGCTAAGCTGGAAACAGCATAGCAAGATTAAATAAGGCTAGTCCGTTATCAACTTGAAAAAGTGGCACCGAGTCGGTGCA
modifications: listed as DNA, chemistry not fully specified
B24: cr728 (nucleic acid)
guide: GTTTAAGAGCTAAGCTGGAAACAGCATAGCAAGTTTAAATAAGGCTAGTCCGTTATCGACTTGACAAAGTGGCACCGAGTCGGTGCT
modifications: listed as DNA, chemistry not fully specified
B25: cr799 (nucleic acid)
guide: GTTTAAGAGCTAAGCTGGAAACAGCATAGCAAGTTTAAATAAGGCTAGTCTGTTATCAACTTGAAAAAGTGGCACCGAGTCGGTGCT
modifications: listed as DNA, chemistry not fully specified
B26: cr163 (nucleic acid)
guide: GTTTAAGAGCTAAGCTGGAAACAGCATAGCAAGCTTAAATAAGGCTAGTCCGTTATCAACTTGAAAAAGTGGCACCGAGTCGGTGCT
modifications: listed as DNA, chemistry not fully specified
B27: cr758 (nucleic acid)
guide: GTTTAAGAGCTAAGCTGGAAACAGCATAGCAAGCTTAAATAAGGCTAGTCCGCTATCAACTTGAAAAAGTGGCACCGAGTCGGTGCT
modifications: listed as DNA, chemistry not fully specified
B28: cr920 (nucleic acid)
guide: GTTTAAGAGCTAAGCTGGAAACAGCATAGCAAGTTTAAATAAGGCTAGTCCGTTGACTACTTGAAAAAGTGGCACCGAGTCGGTGCT
modifications: listed as DNA, chemistry not fully specified
B29: cr794 (nucleic acid)
guide: GTTTAAGAGCTAAGCTGGAAACAGCATAGCAAGTTTAAATAAGGCTAGTCCGTTATCAACTTGAAAAAGTGCCACGGAGTCCGTGGT
modifications: listed as DNA, chemistry not fully specified

The first series concerns K562 CRISPRi cells. Briefly: Constant region variant library pooled growth screen, K562. The note with it: sgRNA constant region variants; activity relative to the original, un-modified constant region cr995. It is filed as cell-based, human. A digest of the protocol: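 K562 CRISPRi, duplicate transductions; puromycin 1 d 0.75 μg/mL then 1 d 0.85 μg/mL; >2000× coverage in spinner flasks; harvests at 4-8 d growth. Activity = phenotype ÷ phenotype with unmodified constant region.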
B1 came in with a Mean relative activity of 1.099. B2 returned a Mean relative activity of 1.044. Still for that read-out and setting: the value for B3 was 1.042.

Staying with this series, now noted: sgRNA constant region variants; relative to the original, un-modified constant region cr995; CRISPRi.
For the molecule B4, the Mean relative activity came out at 0.4409. On the same count and under the same terms, the value for B5 was 0.4224; that for B6 was 0.4381; that for B7 was 0.4677. Molecule B8 showed a Mean relative activity of 0.4269. In turn, B9 returned a Mean relative activity of 0.4034. B10 registered a Mean relative activity of 0.4419.

In the case of B11, the Mean relative activity is on record as 0.4233. Still for that read-out and setting: the value for B12 was 0.4517; that for B13 was 0.4276; that for B14 was 0.4434.

In the case of B15, the Mean relative activity was 0.4409. Still for that read-out and setting: the value for B16 was 0.4445; that for B17 was 0.4186; that for B18 was 0.4541. Same read-out and setting: the same measure for B19: 0.4582; for B20: 0.4546. Same read-out and setting: the same measure for B21: 0.4052. As to B22, the Mean relative activity was found to be 0.4299.

On to B23, for which the Mean relative activity is recorded as 0.4208. On the same count and under the same terms, the value for B24 was 0.4155. B25 yielded a Mean relative activity of 0.4031. The same measure, in the same setting: the value for B26 was 0.4662; that for B27 was 0.4614; that for B28 was 0.4567. B29 yielded a Mean relative activity of 0.411.
